Experimental data published in patent US20110092413A1, “Albumin-Fused Kunitz Domain Peptides” (Novozymes Biopharma DK A/S, priority 2002, published 2011).

Columns and labels:
[1] = DX-88 tested in the clinic for treatment of hereditary angioedema (HAE); type: in vivo, human
Serum half-time of DX-88 = details: in vivo
human plasma kallikrein = human plasma kallikrein (Homo sapiens, UniProt P03952); test: DX-88 inhibition of human plasma kallikrein; type: biochemical
[2] = about 840 mg BPTI, 80 open-heart surgery patients (Fraedrich et al.); cited from earlier work
[3] = Pharmacokinetic study in rabbits: plasma clearance of 125I-labeled protein, SEC of plasma
Source text: (§1) After radiolabeling, the two labeled protein preparations were purified from unbound label by size exclusion chromatography (SEC). Fractions from the SEC column having the highest radioactivity were pooled. The purified, radiolabeled preparations were characterized for specific activity by scintillation counting and for purity by SEC using a Superose-12 column equipped with an in-line radiation detector.
(§2) New Zealand White rabbits (ca. 2.5 Kg) were used for clearance measurements, with one animal each used for of the two labeled protein preparations. The radiolabeled preparation was injected into the animal via an ear vein. One blood sample was collected per animal per time point with early time points at approximately 0, 7, 15, 30, and 90 minutes and later time points at 4, 8, 16, 24, 48, 72, 96, 144, 168, and 192 hours. Samples (about 0.5 ml) were collected into anticoagulant (EDTA) tubes. Cells were separated from the plasma/serum fraction by centrifugation. The plasma fraction was divided into two aliquots. One plasma aliquot was stored at −70° C. and the other aliquot was kept at 4° C. for immediate analyses. Sample analyses included radiation counting for clearance rate determinations and SEC chromatography for in vivo stability.

[4] = target: T1, human neutrophil elastase (Homo sapiens, UniProt P08246); details: Table 4, Biological Activity; read-out: Inhibition of human neutrophil elastase, Ki; cited from earlier work
T1 sequence (P08246 30-267): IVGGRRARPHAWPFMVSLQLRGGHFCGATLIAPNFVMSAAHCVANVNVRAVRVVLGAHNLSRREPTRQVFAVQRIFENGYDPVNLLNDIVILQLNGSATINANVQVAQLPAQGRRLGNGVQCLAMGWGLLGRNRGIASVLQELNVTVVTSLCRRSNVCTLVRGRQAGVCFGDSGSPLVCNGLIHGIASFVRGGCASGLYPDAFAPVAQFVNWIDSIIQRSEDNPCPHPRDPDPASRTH

[5] = rabbit, in vivo
Source text: as §1, §2

Pseudomonas aeruginosa = details: rat model of CF, after seven days of treatment (Cantin and Woods 1999); cited from earlier work

Sequence of human plasma kallikrein (P03952 391-638 limits assumed): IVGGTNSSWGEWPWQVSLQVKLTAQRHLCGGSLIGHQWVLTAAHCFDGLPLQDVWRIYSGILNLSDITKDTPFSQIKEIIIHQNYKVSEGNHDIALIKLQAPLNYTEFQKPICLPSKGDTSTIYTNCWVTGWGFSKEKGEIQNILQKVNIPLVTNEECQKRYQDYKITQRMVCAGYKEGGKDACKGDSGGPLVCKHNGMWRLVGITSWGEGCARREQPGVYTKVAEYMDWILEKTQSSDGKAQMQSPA
Sequence of human plasma kallikrein (P03952 20-390 partner limits assumed): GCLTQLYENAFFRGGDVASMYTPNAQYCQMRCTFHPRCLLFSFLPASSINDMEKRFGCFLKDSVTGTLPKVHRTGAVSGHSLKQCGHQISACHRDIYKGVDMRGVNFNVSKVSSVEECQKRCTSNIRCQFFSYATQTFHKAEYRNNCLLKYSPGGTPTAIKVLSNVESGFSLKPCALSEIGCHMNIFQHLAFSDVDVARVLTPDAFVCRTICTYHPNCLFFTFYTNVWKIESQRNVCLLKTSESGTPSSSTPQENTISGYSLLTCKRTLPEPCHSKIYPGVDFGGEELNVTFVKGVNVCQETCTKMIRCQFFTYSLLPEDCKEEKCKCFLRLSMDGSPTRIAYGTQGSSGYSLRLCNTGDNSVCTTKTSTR

In the case of “DX-88: Kunitz domain derived from the first Kunitz domain of human LACI, inhibits human plasma kallikrein, SEQ ID NO:48 (EAMHSFCAFKADDGPCRAAHPRWFFNIFTRQCEEFIYGGCEGNQNRFESLEECKKMCTRD; Description of Sequence DX-88 Kunitz domain peptide)”, the “initial clinical data in HAE” value [1] is reported as “safe and effective”, the serum half-time (Serum half-time of DX-88) is reported as “not more than 1 hour” and the Ki (human plasma kallikrein) is reported as roughly 0.04 nM.

For “bovine pancreatic trypsin inhibitor [BPTI]”, the “decrease of mean amount transfused” value [2] is listed as 74% and the “reduction of blood loss” value [2] is listed as “almost half”.

In the case of “DX-890: Kunitz domain peptide, inhibitor of human neutrophil elastase, SEQ ID NO:20 (EACNLPIVRGPCIAFFPRWAFDAVKGKCVLFPYGGCQGNGNKFYSEKECREYCGVP; Description of Sequence DX-890 Kunitz domain peptide)”, the “in vivo stability by SEC analysis of plasma” value ([3]; FIG. 6) is listed as “relatively rapid association of label with higher molecular weight plasma components”, the T1/2β ([3]; restated in hours) is listed as 2.75 h and the Ki [4] is listed as roughly 0.005 nM. The “% α” value [5] was 75% and the “% β” value [5] was 25%.

In the case of alpha1 antitrypsin, the bacterial counts (Pseudomonas aeruginosa) is given as 0.2±0.4.
